Experimental findings from patent publication US20120230939A1 (BOARD OF TRUSTEES OF THE UNIVERSITY OF ILLINOIS, published 2012) are described below.

The target of assay [1] is T1, HLA-A0201 (human).
T1 construct: whole, on cells; also called HLA-A201; HLA-A2
Description: cell-based or functional assay.

Assay [2] addresses T1, HLA-A0201. Description: T2 binding assay: stabilisation of HLA-A2 on T2 cells, flow cytometry. In general terms: In flow cytometry, cells or beads pass a laser one at a time.
Description: HLA-A2 expression was visualized by direct staining with FITC conjugated MA2.1 antibody or an isotype control (BD Biosciences, San Diego, Calif.) followed by analysis on a FC500 flow cytometer (Beckman Coulter, Miami, Fla.).
For assay [3], the target named is T1, HLA-A0201. Description: T2 binding assay: HLA-A2 expression on T2 cells, flow cytometry.
Description: Briefly, T2 cells (5×10⁵/well) were pulsed with PSA-peptide or DMSO at the designated concentration and cultured in 24-well plates overnight (18 hours) at 37° C. in 5% CO₂ atmosphere.

In the assay with HLA-A0201 [1], anti-HLA-A2 monoclonal antibody (BB7.2) gave a fold decrease in cytolytic activity of CD8+ CTL induced with TEM8 298-306 against HepG2 targets (12-hour chromium release assay) of 2 fold.

B1: TEM8 298-306 peptide (peptide)
peptide: SMNDGLSFI
notes: Synthetic peptide, >95% purity
Regarding B1, the binding result with HLA-A0201 [2] is “binds”.

B2: TEM8 207-215 peptide (peptide)
peptide: ALQGIIHSI
notes: as for B1
Take B2: the binding result in the assay with HLA-A0201 [2] is on record as “binds”.

B3: TEM8 266-274 peptide (peptide)
peptide: TLNEKPFSV
notes: as for B1
On to B3, for which the binding result in the assay with HLA-A0201 [2] is on record as “no binding (tested: 1 to 80 ug/ml)”.

B4: PSA 210-230 peptide (peptide)
peptide: CALPERPSLYTKVVHYRKWIK
notes: Synthetic peptide, >95% purity, bought from Research Genetics Inc; also called 21-mer PSA 210-230 peptide
Take B4: the binding result with HLA-A0201 [3] is on record as “binds”.
